Results on 1 substance are retold here after PMC11910330, “Familial Alzheimer’s disease mutations in amyloid precursor protein impair calcineurin signaling to NMDA receptors” (The Journal of Biological Chemistry, 2024).

Assay [1] has as its target APLP1 peptide (APLP1 core sequence in the PVIVIT peptide). Description: pull-down; biotinylated peptides (10 ug) precoupled to streptavidin-coated beads, incubated with 200 ng GST-CaN in 200 ul for 30 min at 4 C; PBS with 0.1% Tween-20 and 0.1% BSA, or 150 mM NaCl, 10 mM Hepes, 5 mM EDTA, pH 7.4 with 0.5% CHAPSO and 0.1% BSA; immunoblot with anti-CaN, normalised to a GST-CaN standard.

The target of assay [2] is APLP2 peptide (APLP2 core sequence in the PVIVIT peptide). The description is as above.

As to “recombinant GST-tagged CaN A subunit (from UniProt Q08209 1-521) (enzyme)”, the figures for the percent lower CaN binding than the PVIVIT peptide in assay [1] and in assay [2] were 80% and 30%, respectively.
